Here are results for three molecules from patent publication US8008547B2, “Glyphosate-N-acetyltransferase (GAT) genes” (E.I. duPont de Nemours, priority 2000, dated 2011).

In general, Km refers to the substrate concentration at which the rate is half of its maximum.

In data set [1] the test system is maize plants. Briefly: Effect of temperature variation on glyphosate tolerance of T1 maize expressing GAT transgenes. It counts as in vivo. The following applies: cool/cold, warm and hot conditions; 0×, 4×, 6×, 8× at V2; scored at 5 and 14 days. The method, then:
Maize plants expressing GAT variant transgenes 10—4F2 (SEQ ID NO:202), 17-15H3 (SEQ ID NO:549), and 18-28D9b (SEQ ID NO:814) were produced using the methods described in Example 13. The effect of temperature on glyphosate tolerance was evaluated in T1 plants. The T1 plants were grown in cool/cold (day 14° C., night 8° C.), warm (day 28° C., night 20° C.), and hot (day 37° C., night 20° C.) conditions. T1 plants were sprayed at V2 with four different glyphosate spray treatments (0×, 4×, 6×, and 8×). Plants were scored at 5 and 14 days after treatment for leaf discoloration and plant height comparisons as described in Example 13.

Data set [2] deals with maize plants. Briefly: T1 field glyphosate spray of maize expressing GAT transgenes. It counts as in vivo. Particulars: 0×, 4×, 8×, and 4×+4× sprays at V3 and V8; scored 10 days after treatment. The method, then:
Maize plants expressing GAT variant transgenes 18-28D9b (SEQ ID NO:814) and 17-15H3 (SEQ ID NO:549) were produced using the methods described in Example 13. T1 plants were used for the generation of glyphosate field-tolerance data. The T1 plants were treated in the field with four different glyphosate spray treatments (0×, 4×, 8×, and 4×+4×) for each event. The plants were sprayed at V3 and V8. Plants were scored 10 days after treatment for leaf discoloration and plant height comparisons as described in Example 13. […] T2 seeds were collected for further studies.

Data set [3] in a line: KM for Acetyl CoA by mass spectrometric detection of N-acetyl glyphosate. It is filed as biochemical. Particulars: for Km: read-out: apparent KM for Acetyl CoA, 5 mM glyphosate, 0.19 μM GAT, pH 7.7, 50% methanol. The method, then: Initial reaction rates were determined using mass spectrometric detection of N-acetyl glyphosate. Five μl were repeatedly injected into the instrument and reaction rates were obtained by plotting reaction time vs. area of the integrated peak (FIG. 6). Hyperbolic saturation kinetics were observed (FIG. 7), from which an apparent KM of 2 μM was derived.
KM for Acetyl CoA was measured using the mass spectrometry method with repeated sampling during the reaction. AcetylCoA and glyphosate (ammonium salts) were placed as 50-fold-concentrated stock solutions into a well of a mass spectrometry sample plate. Reactions were initiated with the addition of enzyme appropriately diluted in a volatile buffer such as morpholine acetate or ammonium carbonate, pH 6.8 or 7.7. The sample was repeatedly injected into the instrument and initial rates were calculated from plots of […] and peak area. KM was calculated as for glyphosate.

Data set [4] in a line: Transfer of the propionyl group from propionyl CoA to glyphosate (DTNB). It counts as biochemical. Particulars: 1 mM propionyl CoA, 5 mM glyphosate or no glyphosate, 30 minutes. The method, then: The ability of GAT variants (B6 (SEQ ID NO:7), 0—6D10 (SEQ ID NO:448), 17-15H3 (SEQ ID NO:601), and 20-8H12 (SEQ ID NO:816)) to transfer the propionyl group from propionyl CoA to glyphosate was tested in reaction mixtures containing 5 mM glyphosate or no glyphosate. Propionyl CoA was present at 1 mM. After 30 minutes the reactions were terminated and the presence of free […] was determined by the addition of DTNB.

Data set [5] in a line: Apparent KM for glyphosate of purified GAT from B. licheniformis strain B6 (spectrophotometric, 235 nm). It is filed as biochemical. The following applies: 200 μM Acetyl CoA, 1 μM purified GAT, pH 7.7, 20% ethylene glycol. From the text: Hyperbolic saturation kinetics were observed (FIG. 5), from which an apparent KM of 2.9±0.2 (SD) mM was obtained.

B1: SEQ ID NO:549: GAT variant transgene (nucleic acid)
DNA: ATGATAGAGGTGAAACCGATTAACGCAGAGGATACCTATGAACTAAGGCATAGAATACTCAGACCAAACCAGCCGATAGAAGCGTGTATGTTTGAAAGCGATTTACTTCGTGGTGCATTTCACTTAGGCGGCTATTACGGGGGCAAACTGATTTCCATAGCTTCATTCCACCAGGCCGAGCACTCAGAACTCCAAGGCCAGAAACAGTACCAGCTCCGAGGTATGGCTACCTTGGAAGGTTATCGTGAGCAGAAGGCGGGATCGAGTCTAATTAAACACGCTGAAGAAATTCTTCGTAAGAGGGGGGCGGACTTGCTTTGGTGTAATGCGCGGACATCCGCCTCAGGCTACTACAAAAAGTTAGGCTTCAGCGAGCAGGGAGAGGTATTCGACACGCCGCCAGTAGGACCTCACATCCTGATGTATAAAAGGATCACATAA
modifications: Synthetic DNA Sequence; D_S00260796_17-15H3
notes: GAT variant transgene
Consider B1, for which, in the data set with maize plants [1], the “effect of temperature on glyphosate tolerance” value is given as “glyphosate tolerance is not adversely effected by the range of temperatures tested”. In addition, the “T1 field glyphosate tolerance” value in the data set on maize plants [2] is “correlated well with the results previously obtained in the greenhouse”.

B2: SEQ ID NO:7: GAT enzyme isolated from a strain of B. licheniformis (strain B6) (protein)
chain: MIEVKPINAEDTYEIRHRILRPNQPLEACKYETDLLGGTFHLGGYYRDRLISIASFHQAEHSELEGQKQYQLRGMATLEGYREQKAGSTLIRHAEELLRKKGADLLWCNARTSVSGYYKKLGFSEQGGVYDIPPIGPHILMYKKLT
modifications: Unidentified microorganism derived from soil sample.; B6 GAT
As for B2, the Kcat in data set [3] (calculated from Vmax at a known concentration of enzyme) is 0.1 s⁻¹. Further, the Km in data set [3] is about 2 µM; in data set [3] (listed as B6), 2 µM; in data set [5] it was about 2900 µM; in data set [5] (listed as B6) it was 2900 ± 200 µM. In addition, the “transfer of propionyl group to glyphosate” value in data set [4] is recorded as “glyphosate-dependent hydrolysis of propionyl CoA”.

B3: SEQ ID NO:814: GAT variant transgene (nucleic acid)
DNA: ATGATAGAGGTGAAACCGATTAACGCAGAGGATACCTATGAACTAAGGCATAGAATACTCAGACCAAACCAGCCGATAGAAGCGTGTATGTTTGAAAGCGATTTACTTCGTGGTGCATTTCACTTAGGCGGCTTTTACAGGGGCAAACTGATTTCCATAGCTTCATTCCACCAGGCCGAGCACTCGGAACTCCAAGGCCAGAAACAGTACCAGCTCCGAGGTATGGCTACCTTGGAAGGTTATCGTGAGCAGAAAGCGGGATCAACTCTAGTTAAACACGCTGAAGAAATCCTTCGTAAGAGGGGGGCGGACATGCTTTGGTGTAATGCGCGGACATCCGCCTCAGGCTACTACAAAAAGTTAGGCTTCAGCGAGCAGGGAGAGATATTTGACACGCCGCCAGTAGGACCTCACATCCTGATGTATAAAAGGATCACATAA
modifications: Synthetic DNA Sequence; CDS (1)...(441); 18-28D9b
notes: GAT variant transgene
With B3, the “effect of temperature on glyphosate tolerance” value with maize plants [1] is on record as “glyphosate tolerance is not adversely effected by the range of temperatures tested”. In the data set on maize plants [2], the “T1 field glyphosate tolerance” value is listed as “correlated well with the results previously obtained in the greenhouse”.
